Results: paper PMC4392985

Target: LlaKI restriction endonuclease (Lactococcus lactis KLDS4 (endogenous))
Assay: SEC; Sephadex G-200 10/30 column, buffer B-100 (10 mM Tris-HCl pH 7.5, 1 mM EDTA, 10 mM 2-Mercaptoethanol, 100 mM NaCl), 0.5 mL/min; calibrated with protein standards; LlaKI found by assay of cleavage activity of the fractions; native about 112 kDa against 50 kDa denatured

A stoichiometry N of 2 was found for LlaKI restriction endonuclease (enzyme) in this work.
